How the values were obtained:
[1] = target: T1, CD3 epsilon/delta heterodimer (Homo sapiens, UniProt P07766;P04234 P07766:23-126,P04234:22-105); test: SPR; same value in Table 3; conditions: tags: C-terminal human IgG1 Fc fusion, AcroBiosystems; chain copies: heterodimer 1:1 (inferred); label: 5'-biotin-TEG
Experimental: (§1) Binding affinity measurements were performed using a BIAcore T200 instrument (GE Healthcare). To analyze interactions between aptamers and CD3 proteins, 1000 Resonance Units of biotinylated aptamers were immobilized on Series S Sensor chips SA (GE Healthcare) according to manufacturer's instructions (GE Healthcare). SELEX buffer was used as the running buffer. The interactions were measured in the “Single Kinetics Cycle” mode at a flow rate of 30 μl/min and by injecting different concentrations of human CD3 ε/γ, CD3 ε/δ, IgG1 Fc and mouse CD3 ε/δ (Sino Biological). The highest protein concentration used was 100 nM. Other concentrations were obtained by 3-fold dilution. All kinetic data of the interaction were evaluated using the BIAcore T200 evaluation software. Table 3 below provides a summary of KD values obtained from surface plasmon resonance measurements.
(§2) Further, it was observed that compared to the aptamer CELTIC_1 (CD3-1 in Table 1), CELTIC_1s (CD3-1s) bound to the CD3 proteins more strongly. Table 4 below provides a summary of KD values obtained from another set of surface plasmon resonance measurements. It includes KD values of the first five aptamers with and without flanking regions.

[2] = target: T2, CD3 epsilon/gamma heterodimer (Homo sapiens, UniProt P07766;P09693 P07766:23-126,P09693:23-116); test: SPR; same value in Table 3; conditions: tags: C-terminal human IgG1 Fc fusion, AcroBiosystems; chain copies: heterodimer 1:1 (inferred); label: 5'-biotin-TEG
Experimental: as §1, §2

IgG1 Fc (counter target) [3] = target: T3, IgG1 Fc (counter target) (Homo sapiens, UniProt P01857-1 P01857-1:100-330); test: SPR; no interaction observed; conditions: tags: AcroBiosystems; chain copies: 2; label: 5'-biotin-TEG
Experimental: as §1

[4] = target: T1, CD3 epsilon/delta heterodimer; test: SPR; steady state; kinetic 3.2 nM (Table 6); conditions: tags: C-terminal human IgG1 Fc fusion, AcroBiosystems; chain copies: heterodimer 1:1 (inferred); label: 5'-biotin-TEG
Experimental: as §1

[5] = target: T2, CD3 epsilon/gamma heterodimer; test: SPR; steady state; kinetic 3.9 nM (Table 6); conditions: tags: C-terminal human IgG1 Fc fusion, AcroBiosystems; chain copies: heterodimer 1:1 (inferred); label: 5'-biotin-TEG
Experimental: as §1

[6] = target: T1, CD3 epsilon/delta heterodimer; test: SPR; steady state; kinetic fit suboptimal; conditions: tags: C-terminal human IgG1 Fc fusion, AcroBiosystems; chain copies: heterodimer 1:1 (inferred); label: 5'-biotin-TEG
Experimental: as §1

[7] = target: T2, CD3 epsilon/gamma heterodimer; test: SPR; steady state; kinetic fit suboptimal; conditions: tags: C-terminal human IgG1 Fc fusion, AcroBiosystems; chain copies: heterodimer 1:1 (inferred); label: 5'-biotin-TEG
Experimental: as §1

[8] = target: T2, CD3 epsilon/gamma heterodimer; test: SPR; steady state; kinetic 104 pM (Table 8); conditions: tags: C-terminal human IgG1 Fc fusion, AcroBiosystems; chain copies: heterodimer 1:1 (inferred); label: biotin; G4 predicted
Experimental: (§3) Binding affinity measurements with the most interesting anti-CD3 aptamers derived from the core sequence were performed using a BIAcore T200 instrument (GE Healthcare) as already described in Example 4. To analyze interactions between aptamers and CD3 proteins, biotinylated aptamers were immobilized at a lower density than in Example 4 (100-500 RU) on Series S Sensor chips SA (GE Healthcare) according to manufacturer's instructions (GE Healthcare). Mouse and Cynomolgus CD3 ε/δ were purchased from AcroBiosystems. For human proteins, the highest concentration used was 100 nM and 1 μM for mouse and cynomolgus antigens. Other concentrations were obtained by 3-fold dilutions.
(§4) Table 9 below provides a summary of KD values obtained from surface plasmon resonance measurements performed with human CD3 ε/γ and mouse and cynomolgus CD3 ε/δ. […] In these conditions, 3′-3′ deoxy-thymidine-modified versions of the latest four aptamers performed equally well. All these sequenced-optimized aptamers were able to bind the murine and cynomolgus CD3 ε/δ isoforms confirming the cross-specificity of the CD3 aptamers already observed in Examples 3 and 5.

[9] = target: T1, CD3 epsilon/delta heterodimer; test: SPR; kinetic; conditions: tags: C-terminal human IgG1 Fc fusion, AcroBiosystems; chain copies: heterodimer 1:1 (inferred); label: biotin; G4 predicted
Experimental: as §3
(§5) Table 8 below provides a summary of KD values obtained from surface plasmon resonance measurements. […] Variants of the core sequence identified in cell binding assays (CELTIC_core_12, CELTIC_core_24, CELTIC_core_29, CELTIC_core_40 and CELTIC_core_42) were all confirmed to have better affinities than the unmodified aptamer with human CD3 ε/γ. As already observed in Example 4, the affinities were in general slightly lower with CD3 ε/δ which is a consequence of the SELEX strategy that included more rounds on the CD3 ε/γ isoform. None of these sequences did bind to the Fc region of human IgG1.

[10] = target: T1, CD3 epsilon/delta heterodimer; test: SPR; NA; conditions: tags: C-terminal human IgG1 Fc fusion, AcroBiosystems; chain copies: heterodimer 1:1 (inferred); label: 5'-biotin-TEG
Experimental: as §1, §2

[11] = target: T2, CD3 epsilon/gamma heterodimer; test: SPR; NA; conditions: tags: C-terminal human IgG1 Fc fusion, AcroBiosystems; chain copies: heterodimer 1:1 (inferred); label: 5'-biotin-TEG
Experimental: as §1, §2

IgG1 Fc (counter target) [12] = target: T3, IgG1 Fc (counter target); test: SPR; no interaction observed; aptamer also NA for CD3; conditions: tags: AcroBiosystems; chain copies: 2; label: 5'-biotin-TEG
Experimental: as §1, §2

[13] = target: T2, CD3 epsilon/gamma heterodimer; test: SPR; steady state; kinetic 0.2 pM (Table 8); conditions: tags: C-terminal human IgG1 Fc fusion, AcroBiosystems; chain copies: heterodimer 1:1 (inferred); label: biotin; G4 predicted
Experimental: as §3, §4

IgG1 Fc (counter target) [14] = target: T3, IgG1 Fc (counter target); test: SPR; NA; conditions: tags: AcroBiosystems; chain copies: 2; label: biotin; G4 predicted
Experimental: as §3, §5

[15] = target: T1, CD3 epsilon/delta heterodimer; test: SPR; steady state; kinetic 8.2 nM (Table 6), 900 pM (Table 8); conditions: tags: C-terminal human IgG1 Fc fusion, AcroBiosystems; chain copies: heterodimer 1:1 (inferred); label: 5'-biotin-TEG
Experimental: as §1

[16] = target: T2, CD3 epsilon/gamma heterodimer; test: SPR; steady state; kinetic 9.5 pM (Table 6), 304 pM (Table 8); 99 nM steady state (Table 9); conditions: tags: C-terminal human IgG1 Fc fusion, AcroBiosystems; chain copies: heterodimer 1:1 (inferred); label: 5'-biotin-TEG
[17] = target: T2, CD3 epsilon/gamma heterodimer; test: SPR; steady state; kinetic 4.1 nM (Table 6); conditions: tags: C-terminal human IgG1 Fc fusion, AcroBiosystems; chain copies: heterodimer 1:1 (inferred); label: 5'-biotin-TEG
Experimental: as §1

[18] = target: T1, CD3 epsilon/delta heterodimer; test: SPR; steady state; kinetic 3.4 nM (Table 6); conditions: tags: C-terminal human IgG1 Fc fusion, AcroBiosystems; chain copies: heterodimer 1:1 (inferred); label: 5'-biotin-TEG
Experimental: as §1

[19] = target: T1, CD3 epsilon/delta heterodimer; test: SPR; steady state; kinetic 3.7 nM (Table 6); conditions: tags: C-terminal human IgG1 Fc fusion, AcroBiosystems; chain copies: heterodimer 1:1 (inferred); label: 5'-biotin-TEG
Experimental: as §1

[20] = target: T2, CD3 epsilon/gamma heterodimer; test: SPR; steady state; kinetic 3.8 nM (Table 6); conditions: tags: C-terminal human IgG1 Fc fusion, AcroBiosystems; chain copies: heterodimer 1:1 (inferred); label: 5'-biotin-TEG
Experimental: as §1

[21] = target: T1, CD3 epsilon/delta heterodimer; test: SPR; steady state; kinetic 23.3 nM (Table 6); conditions: tags: C-terminal human IgG1 Fc fusion, AcroBiosystems; chain copies: heterodimer 1:1 (inferred); label: 5'-biotin-TEG
Experimental: as §1

[22] = target: T1, CD3 epsilon/delta heterodimer; test: SPR; steady state; kinetic 41.1 nM (Table 6); conditions: tags: C-terminal human IgG1 Fc fusion, AcroBiosystems; chain copies: heterodimer 1:1 (inferred); label: 5'-biotin-TEG
Experimental: as §1

[23] = target: T1, CD3 epsilon/delta heterodimer; test: SPR; steady state; kinetic 2.7 nM (Table 6); conditions: tags: C-terminal human IgG1 Fc fusion, AcroBiosystems; chain copies: heterodimer 1:1 (inferred); label: 5'-biotin-TEG
Experimental: as §1

[24] = target: T2, CD3 epsilon/gamma heterodimer; test: SPR; steady state; kinetic 2.3 nM (Table 6); conditions: tags: C-terminal human IgG1 Fc fusion, AcroBiosystems; chain copies: heterodimer 1:1 (inferred); label: 5'-biotin-TEG
Experimental: as §1

[25] = target: T2, CD3 epsilon/gamma heterodimer; test: SPR; steady state; 43.6 nM (Table 3); kinetic 2.8 nM (Table 6); conditions: tags: C-terminal human IgG1 Fc fusion, AcroBiosystems; chain copies: heterodimer 1:1 (inferred); label: 5'-biotin-TEG
Experimental: as §1

[26] = target: T1, CD3 epsilon/delta heterodimer; test: SPR; steady state; 62.2 nM (Table 3); kinetic 3.4 nM (Table 6); conditions: tags: C-terminal human IgG1 Fc fusion, AcroBiosystems; chain copies: heterodimer 1:1 (inferred); label: 5'-biotin-TEG
Experimental: as §1

T2 sequence (P07766 23-126, chain 1 of 2): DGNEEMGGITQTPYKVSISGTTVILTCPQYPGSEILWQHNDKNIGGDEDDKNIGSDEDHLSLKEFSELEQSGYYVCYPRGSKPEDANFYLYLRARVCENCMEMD
T2 sequence (P09693 23-116, chain 2 of 2): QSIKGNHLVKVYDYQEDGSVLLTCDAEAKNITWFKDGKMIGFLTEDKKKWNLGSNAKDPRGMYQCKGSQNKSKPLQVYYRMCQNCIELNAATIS
T1 sequence (P07766 23-126, stated change not applied, chain 1 of 2): as the sequence (P07766 23-126, chain 1 of 2) above
T1 sequence (P04234 22-105, stated change not applied, chain 2 of 2): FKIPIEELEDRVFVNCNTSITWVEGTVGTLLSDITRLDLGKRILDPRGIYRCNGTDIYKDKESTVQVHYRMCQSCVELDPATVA

B1: CELTIC_3 (ssDNA)
DNA: TAGGGAAGAGAAGGACATATGATGCGTAAGGGTTTGGCAGCGGGCCTGGCGGAACGCGTGTATTTGACTAGTACATGACCACTTGA
[1]
  Kd: 86.5 nM
[2]
  Kd: 65.4 nM

## GATGGAGGGTTTGGCGGTGGGCCTGGCAAGTTATCTCATA (ssDNA) [CELTIC_11s]
IgG1 Fc (counter target) [3]
  binding result: no binding
[4]
  Kd: 138 nM
[5]
  Kd: 94 nM

## CGGCAGGGGTTTGGCTCCGGGTCTGGCGAACTGGCTGAGA (ssDNA) [CELTIC_5s]
[6]
  Kd: 120 nM
[7]
  Kd: 182 nM
IgG1 Fc (counter target) [3]
  binding result: no binding

## GGGTTTGGCATCGGGTCTGGC (ssDNA, 5'-HEG; 3'-3' dT) [CELTIC_core_40t]
[8]
  Kd: 156 nM
[9]
  Kd: 0.01 nM

B2: CELTIC_2 (ssDNA)
DNA: TAGGGAAGAGAAGGACATATGATGAGGGGTTTGGCATCGGGCCTGGCGCCATTCAAGCTATGCTTGACTAGTACATGACCACTTGA
[10]
  binding result: no binding
[11]
  binding result: no binding
IgG1 Fc (counter target) [12]
  binding result: no binding

## GGGTTTGGCATCGGGTCTGGC (ssDNA, 5'-HEG) [CELTIC_core_40]
[13]
  Kd: 129 nM
[9]
  Kd: 0.0052 nM
IgG1 Fc (counter target) [14]
  binding result: no binding

## TACCGCGGGGATTGGCTCCGGGCCTGGCGTCGTAATCTGA (ssDNA) [CELTIC_19s]
IgG1 Fc (counter target) [3]
  binding result: no binding
[15]
  Kd: 150 nM
[16]
  Kd: 104 nM

## AAGGGATTGGCGTCGGGCCTGGCGTAAGGAGGCTATGCTC (ssDNA) [CELTIC_6s]
[6]
  Kd: 168 nM
[7]
  Kd: 287 nM
IgG1 Fc (counter target) [3]
  binding result: no binding

## GGAGTGGAGTATTCCGGGTTTGGCATCGGGCCTGGCGAAG (ssDNA) [CELTIC_4s]
[17]
  Kd: 117 nM
IgG1 Fc (counter target) [3]
  binding result: no binding
[18]
  Kd: 144 nM

## GCATCGAAATGGGGTTGGCACCGGGCCTGGCGAATTGGAT (ssDNA) [CELTIC_9s]
[19]
  Kd: 60.5 nM
[20]
  Kd: 47.3 nM
IgG1 Fc (counter target) [3]
  binding result: no binding

## GGTCGGGTGCTACTGAGCGATTGGCTTTCCGGACTGGGGA (ssDNA) [CELTIC_21s]
[21]
  Kd: 405 nM
[7]
  Kd: 155 nM
IgG1 Fc (counter target) [3]
  binding result: no binding

## GCGTAAGGGTTTGGCAGCGGGCCTGGCGGAACGCGTGTAT (ssDNA) [CELTIC_3s]
[7]
  Kd: 156 nM
IgG1 Fc (counter target) [3]
  binding result: no binding
[22]
  Kd: 409 nM

## CGACCACAGGGGTTTGGCTTCGGGACTGGCGGTGGGCACT (ssDNA) [CELTIC_22s (printed CELTIC_CD3_22)]
[23]
  Kd: 164 nM
[24]
  Kd: 162 nM

B3: CELTIC_21 (ssDNA)
DNA: TAGGGAAGAGAAGGACATATGATGGTCGGGTGCTACTGAGCGATTGGCTTTCCGGACTGGGGATTGACTAGTACATGACCACTTGA
[25]
  Kd: 56.4 nM
[26]
  Kd: 49.8 nM

B4: CELTIC_1 (ssDNA)
DNA: TAGGGAAGAGAAGGACATATGATCCGGGTGGGGGTTTGGCACCGGGCCTGGCGCAGGGATTCGTTGACTAGTACATGACCACTTGA
[10]
  binding result: no binding
[11]
  binding result: no binding
IgG1 Fc (counter target) [12]
  binding result: no binding

From patent US20220251562, “Anti-CD3 Aptamers for Use in Cell Targeting and Labeling” (Ixaka France, published 2022)
